PMC4765800, “Transcription factor StWRKY1 regulates phenylpropanoid metabolites conferring late blight resistance in potato”

Target: StWRKY1 (Solanum tuberosum, UniProt Q9LEC7 1-172)
Assay: EMSA; shift inhibited by excess unlabelled competitor; poly(dI-dC); EMSA: 20 ul with kit binding buffer (LightShift), 1 ul each of 1 ug/ul poly(dI-dC), 50% glycerol, 1% NP-40, 1 M KCl, 100 mM MgCl2, 200 mM EDTA; 3 ug protein, 20 fmol probe; 25 C, 20 min; pH not stated
Conditions: protein: recombinant; label: 3' biotin; blunt

StWRKY1, sequence (Q9LEC7 entry or part of it): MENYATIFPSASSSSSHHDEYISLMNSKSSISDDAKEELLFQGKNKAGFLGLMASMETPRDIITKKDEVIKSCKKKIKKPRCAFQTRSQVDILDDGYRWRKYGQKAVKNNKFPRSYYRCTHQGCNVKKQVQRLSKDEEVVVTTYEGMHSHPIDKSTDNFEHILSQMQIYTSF

B1: THT promoter W1-box probe (dsDNA)
DNA 1: TCGTCAGAGTTGACCTCCACCAACCA
DNA 2: TGGTTGGTGGAGGTCAACTCTGACGA
**Q.** Does B1 bind?
**A.** binds
